Test results from paper PMC8760513, “Mechanistic details of the actinobacterial lyase-catalyzed degradation reaction of 2-hydroxyisobutyryl-CoA” (The Journal of Biological Chemistry, 2021).
Substitutions are numbered along the chain they refer to. In names and notes the source's numbering stands.

Target: the molecule itself
Assay: crystal structure; sitting drop co-crystals of 10 mg/ml protein with 1 mM 2-HIB-CoA, 5 mM ADP, 5 mM MgCl2 and 5 mM dzThDP (or ThDP for the intermediate/product state); tetramer described as a dimer of dimers

B1: 2-hydroxyacyl-CoA lyase from Actinomycetospora chiangmaiensis (WT AcHACL) (enzyme)
chain: MADRQDAERSGAGPARQSVPVASLVAEFLQEHGVDRVFGLQGGHIQPIWDQLARRGVRIVDVRDEGSAVHMAHAHTELTGQTAVAMVTAGPGVTNTVTAVANASVSRIPLLVIGGCPPIPQSNMGPLQDIPHTAILEPITRLARTLRSADQVLREFDEAWARASGDRGEPGPVYLEIPTDVLRRDVPPALQMREHLRAKPKRRPQPHPDDVAAVADLIRAAEKPAIISGRGARTTDGTDLVRLLDASGAAYLDTQESRGLVPDSHPAAVGSARSAVMRDTDLLITVGRQLDYQLGMGSPAVFPHAKVVRIADTASELIDNRRGEVEILAEPGAALAAIADALKDHTPDTSWRDELKAKHRKRAEDYRQALHSTENGADGHIHPNRIFGALDALDGDVLDLGETIMIADGGDLLSFGRLGITKARRYLDAGAFGCLGVATPFAIGAALAYPDRPVVAVTGDGAFGITATEIDTAVRHDAKIVVIVSNNRAWNIERYDQAENYGLVVGTDLADSDYAGVARAFGAHGERVTDPAELEGAIRRALANAPALVDVVTTQDAASPDSGKGLGFVPDYQALTPWNDAEVARRQEGI
notes: 2-hydroxyacyl-CoA lyase (AcHACL) of Actinomycetospora chiangmaiensis DSM 45062; residues up to 590 are named in the text; Crystallised with 2-HIB-CoA and dzThDP (7PT1) or ThDP (7PT4); also called actinobacterial 2-hydroxyacyl-CoA lyase
For B1, which “stoichiometry N” value is on record?
Its value is 4.

B2: AcHACL E493A mutant (enzyme)
chain: B1 chain with E493A
notes: 2-hydroxyacyl-CoA lyase (AcHACL) of Actinomycetospora chiangmaiensis DSM 45062 with E493A, made by site-directed mutation of the WT construct in pASG-IBA43; it says that the overall structure is identical to the WT (tetramer); also called alanine mutant; source: same protocol as WT)
Does B2 bind?
Result: binds

B3: AcHACL E493Q mutant (enzyme)
chain: B1 chain with E493Q
notes: 2-hydroxyacyl-CoA lyase (AcHACL) of Actinomycetospora chiangmaiensis DSM 45062 with E493Q, made by site-directed mutation of the WT construct in pASG-IBA43; it says that the overall structure is identical to the WT (tetramer); source: same protocol as WT)
Does B3 bind?
Result: binds
